Measurements as given in patent publication US20170130226, “APTAMERS AGAINST EGFR AND THERAPEUTIC USES THEREOF” (ALTERMUNE LIMITED, published 2017).

Biological target: EGFR (UniProt P00533 P00533:25-645)
Assay: SPR; PBS, 5 mM MgCl2, 20 C
Conditions: tags: R&D Systems; amine-coupled to sensor chip; label: 5' biotin
Experimental: Aptamer binding to EGFR recombinant protein was assessed by surface plasmon resonance (SPR). SPR experiments were performed on a 404pi system (BiOptix, Boulder, Colo.), at a constant temperature of 20° C., 20 μL min⁻¹ flow rate, using running buffer (degassed PBS, 5 mM MgCl₂, 0.05% Tween) for all coupling and capture steps. 0.1 M N-hydroxysuccinimide (NHS) in MOPS, 0.4 M 1-ethyl-3-(3-dimethylaminopropyl) carbodiimide hydrochloride (EDC), 1 M ethanolamine hydrochloride (pH 8.5) and 10 mM sodium acetate pH 4.5, were from Sigma (St. Louis, Mo.). EGFR was obtained from R&D Systems (Minneapolis, Minn.). Three 96 well plates of oligonucleotides were synthesized by solid phase phosphoramidite chemistry by Boston Open Labs (Cambridge, Mass.) with a 5′ biotin.
The surface in all four channels of a CDM150 sensor chip (BiOptix) was activated by injecting 140 μL of a 1:1 mixture (v/v) of EDC and NHS. Then 350 μL of 285 nM EGFR in 10 mM sodium acetate pH 4.5 was injected in all 4 channels and covalently bound to a density of ˜8000 Response Units (RU) over 1050 sec. Finally, the surface was blocked by an injection of 200 μL 1 M ethanolamine hydrochloride.

| Binder | binding result |
| --- | --- |
| GGACGGAUUUAAUCGCCGUAGAAAAGCAUGUCAAAGCCGGAACCGUCC (ssRNA, 2'-F all C and U; 2'-OMe A7) [ALT102064.01] | binds |
| GGACGGAUUUAAUCGCCGUAGAAAAGCAUGUCAAAGCCGGAACCGUCC (ssRNA, 2'-F all C and U; 2'-OMe G15) [ALT102072.01] | binds |
| GGACGGAUUUAAUCGCCGUAGAAAAGCAUGUCAAAGCCGGAACCGUCC (ssRNA, 2'-F all C and U and A23) [ALT102119.01] | binds |
| GGACGGAUUUAAUCGCCGUAGAAAAGCAUGUCAAAGCCGGAACCGUCC (ssRNA, 2'-F all C and U and A7) [ALT102111.01] | binds |
| GGACGGAUUUAAUCGCCGUAGAAAAGCAUGUCAAAGCCGGAACCGUCC (ssRNA, 2'-F all C and U except 2'-OMe C47) [ALT102104.01] | binds |
| GGACGGAUUUAAUCGCCGUAGAAAAGCAUGUCAAAGCCGGAACCGUCC (ssRNA, 2'-F all C and U except 2'-OMe U9) [ALT102066.01] | binds |
| GGACGGAUUUAAUCGCCGUAGAAAAGCAUGUCAAAGCCGGAACCGUCC (ssRNA, 2'-F all C and U; 2'-OMe A3) [ALT102060.01] | binds |
| GGACGGAUUUAAUCGCCGUAGAAAAGCAUGUCAAAGCCGGAACCGUCC (ssRNA, 2'-F all C and U; 2'-OMe G6) [ALT102063.01] | binds |
| GGACGGAUUUAAUCGCCGUAGAAAAGCAUGUCAAAGCCGGAACCGUCC (ssRNA, 2'-F all C and U; 2'-OMe G39) [ALT102096.01] | binds |
| GGACGGAUUUAAUCGCCGUAGAAAAGCAUGUCAAAGCCGGAACCGUCC (ssRNA, 2'-F all C and U except 2'-OMe U8) [ALT102065.01] | binds |
| GGACGGAUUUAAUCGCCGUAGAAAAGCAUGUCAAAGCCGGAACCGUCC (ssRNA, 2'-F all C and U; 2'-OMe A28) [ALT102085.01] | binds |
| GGACGGAUUUAAUCGCCGUAGAAAAGCAUGUCAAAGCCGGAACCGUCC (ssRNA, 2'-F all C and U; 2'-OMe G1) [ALT102058.01] | binds |
| GGACGGAUUUAAUCGCCGUAGAAAAGCAUGUCAAAGCCGGAACCGUCC (ssRNA, 2'-F all C and U and A20) [ALT102116.01] | binds |
| GGACGGAUUUAAUCGCCGUAGAAAAGCAUGUCAAAGCCGGAACCGUCC (ssRNA, 2'-F all C and U except 2'-OMe C37) [ALT102094.01] | binds |
| GGACGGAUUUAAUCGCCGUAGAAAAGCAUGUCAAAGCCGGAACCGUCC (ssRNA, 2'-F all C and U except 2'-OMe U46) [ALT102103.01] | binds |
| GGACGGAUUUAAUCGCCGUAGAAAAGCAUGUCAAAGCCGGAACCGUCC (ssRNA, 2'-F all C and U; 2'-OMe G26) [ALT102083.01] | binds |
| GGACGGAUUUAAUCGCCGUAGAAAAGCAUGUCAAAGCCGGAACCGUCC (ssRNA, 2'-F all C and U and A11) [ALT102112.01] | binds |
| GGACGGAUUUAAUCGCCGUAGAAAAGCAUGUCAAAGCCGGAACCGUCC (ssRNA, 2'-F all C and U and G15) [ALT102114.01] | binds |
| GGACGGAUUUAAUCGCCGUAGAAAAGCAUGUCAAAGCCGGAACCGUCC (ssRNA, 2'-F all C and U; 2'-OMe G18) [ALT102075.01] | binds |
| GGACGGAUUUAAUCGCCGUAGAAAAGCAUGUCAAAGCCGGAACCGUCC (ssRNA, 2'-F all C and U; 2'-OMe G45) [ALT102102.01] | binds |
| GGACGGAUUUAAUCGCCGUAGAAAAGCAUGUCAAAGCCGGAACCGUCC (ssRNA, 2'-F all C and U and A25) [ALT102121.01] | binds |
| GGACGGAUUUAAUCGCCGUAGAAAAGCAUGUCAAAGCCGGAACCGUCC (ssRNA, 2'-F all C and U and A22) [ALT102118.01] | binds |
| GGACGGAUUUAAUCGCCGUAGAAAAGCAUGUCAAAGCCGGAACCGUCC (ssRNA, 2'-F all C and U; 2'-OMe A23) [ALT102080.01] | binds |
| GGACGGAUUUAAUCGCCGUAGAAAAGCAUGUCAAAGCCGGAACCGUCC (ssRNA, 2'-F all C and U; 2'-OMe A41) [ALT102098.01] | binds |

| Binder | binding result |
| --- | --- |
| GGACGGAUUUAAUCGCCGUAGAAAAGCAUGUCAAAGCCGGAACCGUCC (ssRNA, 2'-F all C and U; 2'-OMe G2) [ALT102059.01] | binds |
| GGACGGAUUUAAUCGCCGUAGAAAAGCAUGUCAAAGCCGGAACCGUCC (ssRNA, 2'-F all C and U and A28) [ALT102123.01] | binds |
| GGACGGAUUUAAUCGCCGUAGAAAAGCAUGUCAAAGCCGGAACCGUCC (ssRNA, 2'-F all C and U and A3) [ALT102108.01] | binds |
| GGACGGAUUUAAUCGCCGUAGAAAAGCAUGUCAAAGCCGGAACCGUCC (ssRNA, 2'-F all C and U; 2'-OMe G40) [ALT102097.01] | binds |
| GGACGGAUUUAAUCGCCGUAGAAAAGCAUGUCAAAGCCGGAACCGUCC (ssRNA, 2'-F all C and U; 2'-OMe A20) [ALT102077.01] | binds |
| GGACGGAUUUAAUCGCCGUAGAAAAGCAUGUCAAAGCCGGAACCGUCC (ssRNA, 2'-F all C and U; 2'-OMe A33) [ALT102090.01] | binds |
| GGACGGAUUUAAUCGCCGUAGAAAAGCAUGUCAAAGCCGGAACCGUCC (ssRNA, 2'-F all C and U and G5) [ALT102109.01] | binds |
| GGACGGAUUUAAUCGCCGUAGAAAAGCAUGUCAAAGCCGGAACCGUCC (ssRNA, 2'-F all C and U except 2'-OMe C38) [ALT102095.01] | binds |
| GGACGGAUUUAAUCGCCGUAGAAAAGCAUGUCAAAGCCGGAACCGUCC (ssRNA, 2'-F all C and U; 2'-OMe G5) [ALT102062.01] | binds |
| GGACGGAUUUAAUCGCCGUAGAAAAGCAUGUCAAAGCCGGAACCGUCC (ssRNA, 2'-F all C and U; 2'-OMe G21) [ALT102078.01] | binds |
| GGACGGAUUUAAUCGCCGUAGAAAAGCAUGUCAAAGCCGGAACCGUCC (ssRNA, 2'-F all C and U and A24) [ALT102120.01] | binds |
| GGACGGAUUUAAUCGCCGUAGAAAAGCAUGUCAAAGCCGGAACCGUCC (ssRNA, 2'-F all C and U and A33) [ALT102125.01] | binds |
| GGACGGAUUUAAUCGCCGUAGAAAAGCAUGUCAAAGCCGGAACCGUCC (ssRNA, 2'-F all C and U except 2'-OMe C4) [ALT102061.01] | binds |
| GGACGGAUUUAAUCGCCGUAGAAAAGCAUGUCAAAGCCGGAACCGUCC (ssRNA, 2'-F all C and U; 2'-OMe G30) [ALT102087.01] | binds |
| GGACGGAUUUAAUCGCCGUAGAAAAGCAUGUCAAAGCCGGAACCGUCC (ssRNA, 2'-F all C and U except 2'-OMe C27) [ALT102084.01] | binds |
| GGACGGAUUUAAUCGCCGUAGAAAAGCAUGUCAAAGCCGGAACCGUCC (ssRNA, 2'-F all C and U; 2'-OMe G36) [ALT102093.01] | binds |
| GGACGGAUUUAAUCGCCGUAGAAAAGCAUGUCAAAGCCGGAACCGUCC (ssRNA, 2'-F all C and U except 2'-OMe C48) [ALT102105.01] | binds |
| GGACGGAUUUAAUCGCCGUAGAAAAGCAUGUCAAAGCCGGAACCGUCC (ssRNA, 2'-F all C and U and G2) [ALT102107.01] | binds |
| GGACGGAUUUAAUCGCCGUAGAAAAGCAUGUCAAAGCCGGAACCGUCC (ssRNA, 2'-F all C and U except 2'-OMe C16) [ALT102073.01] | binds |
| GGACGGAUUUAAUCGCCGUAGAAAAGCAUGUCAAAGCCGGAACCGUCC (ssRNA, 2'-F all C and U and G21) [ALT102117.01] | binds |
| GGACGGAUUUAAUCGCCGUAGAAAAGCAUGUCAAAGCCGGAACCGUCC (ssRNA, 2'-F all C and U; 2'-OMe A24) [ALT102081.01] | binds |
| GGACGGAUUUAAUCGCCGUAGAAAAGCAUGUCAAAGCCGGAACCGUCC (ssRNA, 2'-F all C and U and G26) [ALT102122.01] | binds |
| GGACGGAUUUAAUCGCCGUAGAAAAGCAUGUCAAAGCCGGAACCGUCC (ssRNA, 2'-F all C and U and G6) [ALT102110.01] | binds |
| GGACGGAUUUAAUCGCCGUAGAAAAGCAUGUCAAAGCCGGAACCGUCC (ssRNA, 2'-F all C and U except 2'-OMe U19) [ALT102076.01] | binds |
